# According to the supplement of paper PMC10567573:
# B1: CDS2 (parent)
# chain: IHSIALSTFASLIGPFGGFFASGF
# B2: MLL5 (parent)
# chain: EQIAERKRKMVSWEASSLGLVTAA
# Variants of: B1
# Test: protein stability index of a GFP-peptide fusion (GPS, HEK-293T) (PSI 1-6); higher = more stable
# Details: c terminus: a fixed tail appended
# 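Further: lentivirally expressed fusions sorted by FACS into six bins by GFP to DsRed ratio, PSI derived from sequencing read proportions per bin multiplied by bin number.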
row,Variant,protein stability index
1,IHSIALSTDASLIGPFGGFFASGF [F9D],2.15
2,IHSIALSTFASKIGPFGGFFASGF [L12K],3.15
3,IHDIALSTFASLIGPFGGFFASGF [S3D],3.74
4,IHSIALSTFASLIGPFYGFFASGF [G17Y],2.06
5,IHSIQLSTFASLIGPFGGFFASGF [A5Q],3.47
6,IHSIALSTFASLIGPFGGFYASGF [F20Y],1.92
7,IHSIALSTFASLIAPFGGFFASGF [G14A],3.37
8,IHSIALSTFASLIGPFGGFFAHGF [S22H],2.03
9,IHSIALSTFASLIGPFGGFFASMF [G23M],3.23
10,IHSIALSTFASLIGPFGGFFPSGF [A21P],2.4
11,ITSIALSTFASLIGPFGGFFASGF [H2T],3.98
12,IHSIALSTFASLIGPFGQFFASGF [G18Q],3.3
13,IHSIAPSTFASLIGPFGGFFASGF [L6P],2.23
14,IHSIALSTFASLIGPFGGFFRSGF [A21R],2.9
15,IHSIALSTFASLIGWFGGFFASGF [P15W],2.2
16,IHSIANSTFASLIGPFGGFFASGF [L6N],2.62
17,IHSIALSTFASLIGPFGGRFASGF [F19R],2.72
18,IHSIALSTFASLIGPFGRFFASGF [G18R],3.42
19,IHSIALSTFASLIGPFGGFFASHF [G23H],2.2
20,IHSIALSTFASQIGPFGGFFASGF [L12Q],4.09
21,IHSIALSTFASLIGYFGGFFASGF [P15Y],1.75
22,IHSIALSTFASLIGPFGGQFASGF [F19Q],3.63
23,IHSIAASTFASLIGPFGGFFASGF [L6A],2.63
24,IHSIALSTFASTIGPFGGFFASGF [L12T],1.49
25,IHSIALSTFASLIGPFGCFFASGF [G18C],2.46

row,Variant,protein stability index
1,IHSRALSTFASLIGPFGGFFASGF [I4R],3.04
2,IHSIALSTFASLIPPFGGFFASGF [G14P],2.67
3,IHSIALSTFDSLIGPFGGFFASGF [A10D],3.54
4,IHSIALSTFASLIGPFGGFHASGF [F20H],2.66
5,IHSIALSTFASLIGPHGGFFASGF [F16H],2.84
6,IHSIALSTCASLIGPFGGFFASGF [F9C],2.62
7,IHSIALSTIASLIGPFGGFFASGF [F9I],3.79
8,IHSIALSTFASLIGPFGGFFAIGF [S22I],2.2
9,IHSIALSTFASLGGPFGGFFASGF [I13G],2.48
10,IHSIALYTFASLIGPFGGFFASGF [S7Y],2.65
11,IHSIALSNFASLIGPFGGFFASGF [T8N],3.16
12,IHSIALSTFASLYGPFGGFFASGF [I13Y],2.89
13,IHSIALSTFASLIDPFGGFFASGF [G14D],3.05
14,IHSIALSTFASLIGPFGGFFASYF [G23Y],2.63
15,IHSIALSTFASLIGPFGGFNASGF [F20N],2.68
16,IHEIALSTFASLIGPFGGFFASGF [S3E],3.44
17,IHSIATSTFASLIGPFGGFFASGF [L6T],1.39
18,IHSIALSTFPSLIGPFGGFFASGF [A10P],2.39
19,IHSIALSTFASLIGPMGGFFASGF [F16M],3.82
20,IHSIAYSTFASLIGPFGGFFASGF [L6Y],3.33
21,IHSIALSTFASLIGPFGGFFISGF [A21I],3
22,IHSIALSTFASLIGPFGIFFASGF [G18I],3.04
23,IHSIALSTFASLKGPFGGFFASGF [I13K],2.49
24,IHSIALSTFASLIGPGGGFFASGF [F16G],4.52
25,IHSIALSTFASDIGPFGGFFASGF [L12D],3.44

row,Variant,protein stability index
1,IHSIALSTFASLIGPFDGFFASGF [G17D],3.88
2,THSIALSTFASLIGPFGGFFASGF [I1T],3.44
3,IHSAALSTFASLIGPFGGFFASGF [I4A],2.44
4,IHSIALSTFASLIGPFGGFFASGN [F24N],3.11
5,IPSIALSTFASLIGPFGGFFASGF [H2P],1.95
6,IHSIPLSTFASLIGPFGGFFASGF [A5P],2.54
7,IHSIALSTFNSLIGPFGGFFASGF [A10N],1.6
8,IHSIALSTQASLIGPFGGFFASGF [F9Q],3.22
9,IHSIALSTFASLHGPFGGFFASGF [I13H],3.22
10,IHSIALSTFASLIGPFAGFFASGF [G17A],2.41
11,IHSIALSTFASFIGPFGGFFASGF [L12F],4.01
12,IHSIALSTFASLIGPFGGFFASGP [F24P],3.79
13,IHSIALSTFAALIGPFGGFFASGF [S11A],2.88
14,IHSIALSTFASLNGPFGGFFASGF [I13N],2
15,IHSIALSTFASPIGPFGGFFASGF [L12P],2.99
16,IHSIALSTFASLIGPFRGFFASGF [G17R],2.63
17,IHSIALSTFASLIGPFGGFFASQF [G23Q],2.79
18,IHSIALSTFASLIGPFGSFFASGF [G18S],2.36
19,IHSIALSTFASLIGPFGGFFVSGF [A21V],2.06
20,IHSIALSTFASLILPFGGFFASGF [G14L],3.66
21,IHSIALSTFASLIGPFGGFFASDF [G23D],2.37
22,IHSIALSTFAVLIGPFGGFFASGF [S11V],1.89
23,IHSIALSTFASLIGPFGGFFAFGF [S22F],3.51
24,IHSIALNTFASLIGPFGGFFASGF [S7N],2.5
25,DHSIALSTFASLIGPFGGFFASGF [I1D],1.79

# Variants of: B2
# Test: as above
# Details: c terminus: a fixed tail appended
row,Variant,protein stability index
1,AQIAERKRKMVSWEASSLGLVTAA [E1A],2.18
2,CQIAERKRKMVSWEASSLGLVTAA [E1C],1.44
3,DQIAERKRKMVSWEASSLGLVTAA [E1D],3.35
4,FQIAERKRKMVSWEASSLGLVTAA [E1F],1.42
5,GQIAERKRKMVSWEASSLGLVTAA [E1G],3.27
6,IQIAERKRKMVSWEASSLGLVTAA [E1I],2.78
7,KQIAERKRKMVSWEASSLGLVTAA [E1K],4
8,LQIAERKRKMVSWEASSLGLVTAA [E1L],2.53
9,MQIAERKRKMVSWEASSLGLVTAA [E1M],2.41
10,NQIAERKRKMVSWEASSLGLVTAA [E1N],3.06
11,PQIAERKRKMVSWEASSLGLVTAA [E1P],3.16
12,QQIAERKRKMVSWEASSLGLVTAA [E1Q],3.2
13,RQIAERKRKMVSWEASSLGLVTAA [E1R],2.77
14,TQIAERKRKMVSWEASSLGLVTAA [E1T],2.67
15,VQIAERKRKMVSWEASSLGLVTAA [E1V],2.55
16,WQIAERKRKMVSWEASSLGLVTAA [E1W],1.69
17,YQIAERKRKMVSWEASSLGLVTAA [E1Y],2.41
18,EAIAERKRKMVSWEASSLGLVTAA [Q2A],2.75
19,ECIAERKRKMVSWEASSLGLVTAA [Q2C],1.97
